Measurements published in patent publication US9650648.

Legend:
Test in all cases: cell_activity
[1] = tested on: ZFN 44945 (BCL11A-XL) (synthetic); conditions: pair with 44944; K562
[2] = tested on: ZFN 43544 (beta-globin IVS1.1) (synthetic); conditions: pair with 43545; CD34+ cells
[3] = tested on: ZFN 36021 (KLF1 exon 1) (synthetic); conditions: pair with 36004; CD34+ cells; 2.2X gamma mRNA
[4] = tested on: ZFN 34678 (BCL11A exon 4) (synthetic); conditions: pair with 34642; CD34+ cells; 3.52X gamma mRNA
[5] = tested on: TALEN 102321 (gamma globin promoter) (synthetic); conditions: pair with 102316; K562, Cel-I
[6] = tested on: TALEN 102320 (gamma globin promoter) (synthetic); conditions: pair with 102315; K562, Cel-I
[7] = tested on: TALEN 102318 (gamma globin promoter) (synthetic); conditions: pair with 102314; K562, Cel-I; 2.14X gamma mRNA in CD34+
[8] = tested on: ZFN 43545 (beta-globin IVS1.1) (synthetic); conditions: pair with 43544; CD34+ cells
[9] = tested on: ZFN 34642 (BCL11A exon 4) (synthetic); conditions: pair with 34678; CD34+ cells; 3.52X gamma mRNA
[10] = tested on: ZFN 34363 (gamma globin -175) (synthetic); conditions: pair with 34360; K562, Cel-I
[11] = tested on: TALEN 101301 (BCL11A exon 4) (synthetic); conditions: pair with 101304; CD34+ cells; 2.31X gamma mRNA
[12] = tested on: ZFN 39145 (BCL11A exon 2) (synthetic); conditions: pair with 39172; CD34+ cells; 3.65X gamma mRNA
[13] = tested on: ZFN 45081 (BCL11A exon 2) (synthetic); conditions: pair with 39172; K562
[14] = tested on: ZFN 44490 (BCL11A exon 2) (synthetic); conditions: pair with 39172; K562
[15] = tested on: ZFN 44489 (BCL11A exon 2) (synthetic); conditions: pair with 39172; K562
[16] = tested on: ZFN 44493 (BCL11A exon 2) (synthetic); conditions: pair with 39172; K562
[17] = tested on: ZFN 44944 (BCL11A-XL) (synthetic); conditions: pair with 44945; K562
[18] = tested on: ZFN 44946 (BCL11A-XL) (synthetic); conditions: pair with 44947; K562
[19] = tested on: ZFN 44947 (BCL11A-XL) (synthetic); conditions: pair with 44946; K562
[20] = tested on: ZFN 44889 (BCL11A-XL) (synthetic); conditions: pair with 44888; K562
[21] = tested on: ZFN 43490 (BCL11A exon 2) (synthetic); conditions: pair with 39145; K562
[22] = tested on: ZFN 39172 (BCL11A exon 2) (synthetic); conditions: pair with 39145; CD34+ cells; 3.65X gamma mRNA
[23] = tested on: ZFN 45147 (BCL11A exon 2) (synthetic); conditions: pair with 39145; K562; printed as 41547 in Table 1B, 45147 in Table 1A
[24] = tested on: ZFN 44642 (BCL11A exon 2) (synthetic); conditions: pair with 39145; K562
[25] = tested on: ZFN 45148 (BCL11A exon 2) (synthetic); conditions: pair with 39145; K562; printed as 41548 in Table 1B, 45148 in Table 1A
[26] = tested on: ZFN 44910 (BCL11A-XL) (synthetic); conditions: pair with 44911; K562
[27] = tested on: TALEN 101292 (BCL11A exon 2) (synthetic); conditions: pair with 101291; K562, Cel-I
[28] = tested on: ZFN 34400 (gamma globin -175) (synthetic); conditions: pair with 34398; K562, Cel-I
[29] = tested on: ZFN 34365 (gamma globin -175) (synthetic); conditions: pair with 31160; K562; 45.22% in CD34+; 1.63X gamma mRNA
[30] = tested on: TALEN 101291 (BCL11A exon 2) (synthetic); conditions: pair with 101292; K562, Cel-I
[31] = tested on: ZFN 36085 (KLF1 exon 2) (synthetic); conditions: pair with 36071; CD34+ cells; 3.17X gamma mRNA
[32] = tested on: ZFN 44905 (BCL11A-XL) (synthetic); conditions: pair with 44904; K562
[33] = tested on: ZFN 44911 (BCL11A-XL) (synthetic); conditions: pair with 44910; K562
[34] = tested on: ZFN 34574 (gamma globin -110) (synthetic); conditions: pair with 34539; CD34+ cells; 5.38X gamma mRNA
[35] = tested on: ZFN 43865 (gamma globin -110) (synthetic); conditions: pair with 43852; CD34+ cells
[36] = tested on: ZFN 36004 (KLF1 exon 1) (synthetic); conditions: pair with 36021; CD34+ cells; 2.2X gamma mRNA
[37] = tested on: ZFN 36071 (KLF1 exon 2) (synthetic); conditions: pair with 36085; CD34+ cells; 3.17X gamma mRNA
[38] = tested on: TALEN 102314 (gamma globin promoter) (synthetic); conditions: pair with 102318; K562, Cel-I; 2.14X gamma mRNA in CD34+
[39] = tested on: TALEN 102315 (gamma globin promoter) (synthetic); conditions: pair with 102320; K562, Cel-I
[40] = tested on: TALEN 102316 (gamma globin promoter) (synthetic); conditions: pair with 102321; K562, Cel-I
[41] = tested on: TALEN 101304 (BCL11A exon 4) (synthetic); conditions: pair with 101301; CD34+ cells; 2.31X gamma mRNA
[42] = tested on: TALEN 102566 (gamma globin -110) (synthetic); conditions: pair with 102568; CD34+ cells, MiSeq; 6.25X gamma mRNA
[43] = tested on: ZFN 31160 (gamma globin -175) (synthetic); conditions: pair with 34365; K562; 45.22% in CD34+; 1.63X gamma mRNA
[44] = tested on: ZFN 44904 (BCL11A-XL) (synthetic); conditions: pair with 44905; K562
[45] = tested on: ZFN 34539 (gamma globin -110) (synthetic); conditions: pair with 34574; CD34+ cells; 5.38X gamma mRNA
[46] = tested on: ZFN 43852 (gamma globin -110) (synthetic); conditions: pair with 43865; CD34+ cells
[47] = tested on: ZFN 34360 (gamma globin -175) (synthetic); conditions: pair with 34363; K562, Cel-I
[48] = tested on: ZFN 44888 (BCL11A-XL) (synthetic); conditions: pair with 44889; K562
[49] = tested on: TALEN 102568 (gamma globin -110) (synthetic); conditions: pair with 102566; CD34+ cells, MiSeq; 6.25X gamma mRNA
[50] = tested on: ZFN 34398 (gamma globin -175) (synthetic); conditions: pair with 34400; K562, Cel-I

Sequence: AAGCTCACCAGGCACATGAAAACGCATG (double strand) [BCL11A-XL 44945 site]
- activity [1]: 24 % indels

Sequence: AATCTGCCCAGGGCCTCACCACCAACTT (double strand) [HBB IVS1.1 43544 site]
- activity [2]: 52.6 % NHEJ

Sequence: ACACACAGGATGACTTCCTCAAGGTGGG (double strand) [KLF1 exon 1 36021 site]
- activity [3]: 44.4 % indels

Sequence: ATATTGCAGACAATAACCCCTTTAACCT (double strand) [BCL11A exon 4 34678 site]
- activity [4]: 82.2 % indels

Sequence: ATATTTGCATTGAGATAG (double strand) [HBG TALEN 102321 site]
- activity [5]: 46.6 % NHEJ

Sequence: ATATTTGCATTGAGATAGT (double strand) [HBG TALEN 102320 site]
- activity [6]: 47.9 % NHEJ

Sequence: ATATTTGCATTGAGATAGTGT (double strand) [HBG TALEN 102318 site]
- activity [7]: 41.6 % NHEJ

Sequence: ATCAAGGTTACAAGACAGGTTTAAGGAG (double strand) [HBB IVS1.1 43545 site]
- activity [8]: 52.6 % NHEJ

Sequence: ATCCCATGGAGAGGTGGCTGGGAAGGAC (double strand) [BCL11A exon 4 34642 site]
- activity [9]: 82.2 % indels

Sequence: ATCTGTCTGAAACGGTCCCTGGCTAAAC (double strand) [HBG -175 34363 site]
- activity [10]: 39 % NHEJ

Sequence: ATGTCCTTCCCAGCCACCTCT (double strand) [BCL11A exon 4 TALEN 101301 site]
- activity [11]: 35.7 % indels

Sequence: CCCAACGGGCCGTGGTCTGGTTCATCAT (double strand) [BCL11A exon 2 site, SEQ 170]
- activity [12]: 69.8 % indels
- activity [13]: 27.8 % indels
- activity [14]: 29.4 % indels
- activity [15]: 24.3 % indels
- activity [16]: 25.7 % indels

Sequence: CTACTCTGGGCACAGGCATAGTTGCACA (double strand) [BCL11A-XL 44944/44946 site]
- activity [17]: 24 % indels
- activity [18]: 34.2 % indels

Sequence: CTCACCAGGCACATGAAAACGCATGGCC (double strand) [BCL11A-XL 44947 site]
- activity [19]: 34.2 % indels

Sequence: CTCACTGTCCACAGGAGAAGCCACACGG (double strand) [BCL11A-XL 44889 site]
- activity [20]: 35.1 % indels

Sequence: CTCCAGAAGGGGATCATGACCTCCTCAC (double strand) [BCL11A exon 2 site, SEQ 160]
- activity [21]: 19.9 % indels
- activity [22]: 69.8 % indels
- activity [23]: 35.6 % indels
- activity [24]: 38.5 % indels
- activity [25]: 42.3 % indels

Sequence: CTCCTGTGGACAGTGAGATTGCTACAGT (double strand) [BCL11A-XL 44910 site]
- activity [26]: 36.4 % indels

Sequence: CTCGATAAAAATAAGAATGT (double strand) [BCL11A exon 2 TALEN 101292 site]
- activity [27]: 0.8 % indels

Sequence: CTGTCTGAAACGGTCCCTGGCTAAACTC (double strand) [HBG -175 34400/34365 site]
- activity [28]: 54 % NHEJ
- activity [29]: 53 % NHEJ

Sequence: CTGTGGGCAGTGCCAGATGA (double strand) [BCL11A exon 2 TALEN 101291 site]
- activity [30]: 0.8 % indels

Sequence: CTTCTCGGGCCCGGAGCCCGGTGGCGCG (double strand) [KLF1 exon 2 36085 site]
- activity [31]: 22.6 % indels

Sequence: GAGAAGCCACACGGGCGAAAGGCCTTAT (double strand) [BCL11A-XL 44905 site]
- activity [32]: 25.4 % indels

Sequence: GCCACACGGGCGAAAGGCCTTATAAATG (double strand) [BCL11A-XL 44911 site]
- activity [33]: 36.4 % indels

Sequence: GCCTTGACAAGGCAAACTTGACCAATAG (double strand) [HBG -110 34574/43865 site]
- activity [34]: 45.7 % NHEJ
- activity [35]: 56.1 % NHEJ

Sequence: GGGAAGGGGCCCAGGGCGGTCAGTGTGC (double strand) [KLF1 exon 1 36004 site]
- activity [36]: 44.4 % indels

Sequence: GGTGAGGAGGAGATCCAGGTCCCAGGTG (double strand) [KLF1 exon 2 36071 site]
- activity [37]: 22.6 % indels

Sequence: GTATCCTCTTGGGGGCC (double strand) [HBG TALEN 102314 site]
- activity [38]: 41.6 % NHEJ

Sequence: GTATCCTCTTGGGGGCCC (double strand) [HBG TALEN 102315 site]
- activity [39]: 47.9 % NHEJ

Sequence: GTATCCTCTTGGGGGCCCC (double strand) [HBG TALEN 102316 site]
- activity [40]: 46.6 % NHEJ

Sequence: GTTAAAGGGGTTATTGTCT (double strand) [BCL11A exon 4 TALEN 101304 site]
- activity [41]: 35.7 % indels

Sequence: GTTGGCCAGCCTTGCCTTGAC (double strand) [HBG -110 TALEN 102566 site]
- activity [42]: 51.4 % NHEJ

Sequence: TATTTGCATTGAGATAGTGTGGGGAAGG (double strand) [HBG -175 31160 site]
- activity [43]: 53 % NHEJ

Sequence: TGGACAGTGAGATTGCTACAGTTCTTGA (double strand) [BCL11A-XL 44904 site]
- activity [44]: 25.4 % indels

Sequence: TGGTCAAGGCAAGGCTGGCCAACCCATG (double strand) [HBG -110 34539/43852 site]
- activity [45]: 45.7 % NHEJ
- activity [46]: 56.1 % NHEJ

Sequence: TTGCATTGAGATAGTGTGGGGAAGGGGC (double strand) [HBG -175 34360 site]
- activity [47]: 39 % NHEJ

Sequence: TTGCTACAGTTCTTGAAGACTTTCCCAC (double strand) [BCL11A-XL 44888 site]
- activity [48]: 35.1 % indels

Sequence: TTGGTCAAGTTTGCCTTGTCA (double strand) [HBG -110 TALEN 102568 site]
- activity [49]: 51.4 % NHEJ

Sequence: TTTGCATTGAGATAGTGTGGGGAAGGGG (double strand) [HBG -175 34398 site]
- activity [50]: 54 % NHEJ
